This is an account of results in paper PMC1525162 (BMC Pharmacology, 2006).

The target of assay [1] is wild type CLR-RAMP1 heterodimer (HEK293T-RAMP1 membranes) (Homo sapiens, UniProt O60894+Q16602). Description: Competition radioligand binding, wild type CLR. To be noted: compared to Ki of CGRP. As for the experimental part:
A crude cell membrane preparation was prepared as previously described. Briefly, HEK293T-RAMP1 membranes were prepared by scraping and transferring cells to a 50 mL conical tube using cold HBSS followed with two washings by centrifugation at 1000 × g using cold HBSS. The intact cell pellet was resuspended in 10 mL of 0.25 M sucrose containing a protease inhibitor cocktail consisting of 10μg/mL benzamidine, 10μg/mL leupeptin, and 20μg/mL phenylmethysulfonylfluoride. The cells were disrupted by freezing followed by Dounce homogenization of the thawed suspension using 20 strokes from a loose fitting (B) pestle. This mixture was then centrifuged at 1260 × g for 5 min at 4°C. Buffer A (20 mM HEPES, pH 7.5, 1.4 mM EGTA, 12.5 mM MgCl2, 10μg/mL benzamidine, 10μg/mL leupeptin, and 20μg/mL phenylmethysulfonylfluoride) was added to the supernatant and centrifuged again at 30,000 × g for 15 min at 4°C. The resultant pellet was kept, resuspended in buffer A then centrifuged once more at 30,000 × g for 15 min at 4°C. […] Protein concentrations were measured using the method of Bradford.
The radioligand binding protocol used for this study was performed as previously described. […] Amounts of total and non-specific radiolabel bound to cell membranes were calculated from radioactive counts remaining on the glass fiber filters.

For assay [2], the target named is wild type CLR-RAMP1 (transiently transfected HEK293T-RAMP1 cells) (Homo sapiens, UniProt O60894+Q16602). Description: cAMP generation, wild type CLR. It counts as cell-based.
The subject of assay [3] is L24A, L34A and L24A,L34A CLR-RAMP1 heterodimers versus wild type. Description: Competition/saturation binding, leucine mutant CLRs compared with wild type. Also on record: species or system human. To be noted: L34A, L24A,L34A vs wild type CLR. As to the method: A crude cell membrane preparation was prepared as previously described. Briefly, HEK293T-RAMP1 membranes were prepared by scraping and transferring cells to a 50 mL conical tube using cold HBSS followed with two washings by centrifugation at 1000 × g using cold HBSS. The intact cell pellet was resuspended in 10 mL of 0.25 M sucrose containing a protease inhibitor cocktail consisting of 10μg/mL benzamidine, 10μg/mL leupeptin, and 20μg/mL phenylmethysulfonylfluoride. The cells were disrupted by freezing followed by Dounce homogenization of the thawed suspension using 20 strokes from a loose fitting (B) pestle. This mixture was then centrifuged at 1260 × g for 5 min at 4°C. Buffer A (20 mM HEPES, pH 7.5, 1.4 mM EGTA, 12.5 mM MgCl2, 10μg/mL benzamidine, 10μg/mL leupeptin, and 20μg/mL phenylmethysulfonylfluoride) was added to the supernatant and centrifuged again at 30,000 × g for 15 min at 4°C. The resultant pellet was kept, resuspended in buffer A then centrifuged once more at 30,000 × g for 15 min at 4°C. The final crude membrane pellet was resuspended in buffer A containing 10% glycerol and stored in aliquots at -70°C until used for radioligand binding. Protein concentrations were measured using the method of Bradford.
The radioligand binding protocol used for this study was performed as previously described. […] Binding was stopped by filtering the membranes though Whatman GF/C glass fiber filters, followed by 5 – 5 mL washes with cold buffer B (20 mM HEPES, pH 7.5, 1.4 mM EGTA, 12.5 mM MgCl2) to remove any unbound drug. Amounts of total and non-specific radiolabel bound to cell membranes were calculated from radioactive counts remaining on the glass fiber filters.

Assay [4] relates to wild type and L24A, L34A, L24A,L34A CLR-RAMP1 (HEK293T-RAMP1 cells). Description: cAMP generation, wild type and leucine mutant CLRs compared.
For a further assay, the system named is CGRP receptor. To be noted: cited from earlier work. An excerpt:
Briefly, this 37 amino acid neuropeptide can be divided into two distinct domains based upon its binding and agonistic properties for the receptor. […] Specifically, loss of the disulfide bridge connecting amino acids 2 and 7 negates all biological activity of the endogenous neuropeptide.

Assay [5] deals with CLR-RAMP1 heterodimer with the L24A CLR mutant (UniProt Q16602). Put plainly: radioligand binding; saturation binding: increasing [125I-Tyr]CGRP(8–37) on crude membranes of transiently transfected HEK293T-RAMP1 cells, 37°C, buffer A (20 mM HEPES pH 7.5, […] EGTA, 12.5 mM MgCl2, protease inhibitors) plus 0.1% BSA, 1 μM CGRP for non-specific binding, filtration on GF/C filters.
In assay [6] the target is CLR-RAMP1 heterodimer with the L24A,L34A CLR double mutant (UniProt Q16602). The assay is described as above.
For assay [7], the target named is CLR-RAMP1 heterodimer with the L34A CLR mutant (UniProt Q16602). The assay is described as above.
In assay [8] the target is CLR-RAMP1 heterodimer, wild type calcitonin-like receptor (CLR) with receptor-activity-modifying protein-1 (RAMP1) (UniProt Q16602). The assay is described as above.
Assay [9] deals with T1, CLR-RAMP1 heterodimer with the L24A CLR mutant, Q16602.
T1 chain 1: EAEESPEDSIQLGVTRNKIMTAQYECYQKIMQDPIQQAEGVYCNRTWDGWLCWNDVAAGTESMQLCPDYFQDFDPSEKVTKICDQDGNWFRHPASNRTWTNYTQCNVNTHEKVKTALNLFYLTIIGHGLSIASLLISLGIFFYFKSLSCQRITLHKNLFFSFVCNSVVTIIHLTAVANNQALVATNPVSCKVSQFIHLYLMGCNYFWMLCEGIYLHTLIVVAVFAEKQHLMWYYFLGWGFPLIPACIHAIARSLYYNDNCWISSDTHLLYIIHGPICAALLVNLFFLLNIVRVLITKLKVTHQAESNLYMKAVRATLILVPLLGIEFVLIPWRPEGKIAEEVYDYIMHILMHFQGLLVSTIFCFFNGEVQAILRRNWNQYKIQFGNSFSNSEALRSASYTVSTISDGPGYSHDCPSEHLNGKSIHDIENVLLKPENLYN
T1 chain 2: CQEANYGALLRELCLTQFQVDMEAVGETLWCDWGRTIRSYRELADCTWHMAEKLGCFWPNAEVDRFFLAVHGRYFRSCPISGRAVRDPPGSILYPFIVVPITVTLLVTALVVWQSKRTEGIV

Assay [10] addresses T2, CLR-RAMP1 heterodimer with the L24A,L34A CLR double mutant, Q16602.
T2 chain 1: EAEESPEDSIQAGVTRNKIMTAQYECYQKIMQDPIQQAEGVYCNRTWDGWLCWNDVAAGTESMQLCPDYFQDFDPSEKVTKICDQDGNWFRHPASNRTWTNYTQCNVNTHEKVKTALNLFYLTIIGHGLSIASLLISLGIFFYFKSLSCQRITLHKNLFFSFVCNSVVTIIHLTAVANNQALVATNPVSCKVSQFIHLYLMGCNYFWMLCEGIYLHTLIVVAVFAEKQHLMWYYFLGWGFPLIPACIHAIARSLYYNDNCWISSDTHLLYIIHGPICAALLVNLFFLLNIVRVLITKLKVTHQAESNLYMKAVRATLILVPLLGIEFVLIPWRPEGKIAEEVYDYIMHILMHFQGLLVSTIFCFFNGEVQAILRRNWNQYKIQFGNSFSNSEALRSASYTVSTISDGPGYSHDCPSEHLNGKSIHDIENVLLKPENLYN
T2 chain 2: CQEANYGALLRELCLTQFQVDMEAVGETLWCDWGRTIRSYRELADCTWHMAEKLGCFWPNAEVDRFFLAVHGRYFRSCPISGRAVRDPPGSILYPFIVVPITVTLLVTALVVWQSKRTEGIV

Assay [11] has as its target T3, CLR-RAMP1 heterodimer with the L34A CLR mutant, Q16602.
T3 chain 1: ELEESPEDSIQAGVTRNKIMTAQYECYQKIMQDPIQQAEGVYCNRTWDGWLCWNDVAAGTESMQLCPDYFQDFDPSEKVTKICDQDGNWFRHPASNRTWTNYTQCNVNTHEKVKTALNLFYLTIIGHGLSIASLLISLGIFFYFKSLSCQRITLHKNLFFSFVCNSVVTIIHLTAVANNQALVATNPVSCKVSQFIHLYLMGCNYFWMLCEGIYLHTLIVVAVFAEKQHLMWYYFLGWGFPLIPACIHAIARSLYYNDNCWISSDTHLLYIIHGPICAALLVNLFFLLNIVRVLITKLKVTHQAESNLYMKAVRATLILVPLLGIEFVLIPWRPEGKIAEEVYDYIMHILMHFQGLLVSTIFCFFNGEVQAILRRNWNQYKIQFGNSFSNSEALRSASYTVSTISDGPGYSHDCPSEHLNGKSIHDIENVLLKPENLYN
T3 chain 2: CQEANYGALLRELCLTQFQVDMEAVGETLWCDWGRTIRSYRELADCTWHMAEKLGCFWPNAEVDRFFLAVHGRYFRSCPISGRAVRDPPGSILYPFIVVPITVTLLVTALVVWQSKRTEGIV

Assay [12] addresses T4, CLR-RAMP1 heterodimer, wild type calcitonin-like receptor (CLR) with receptor-activity-modifying protein-1 (RAMP1), Q16602.
T4 chain 1: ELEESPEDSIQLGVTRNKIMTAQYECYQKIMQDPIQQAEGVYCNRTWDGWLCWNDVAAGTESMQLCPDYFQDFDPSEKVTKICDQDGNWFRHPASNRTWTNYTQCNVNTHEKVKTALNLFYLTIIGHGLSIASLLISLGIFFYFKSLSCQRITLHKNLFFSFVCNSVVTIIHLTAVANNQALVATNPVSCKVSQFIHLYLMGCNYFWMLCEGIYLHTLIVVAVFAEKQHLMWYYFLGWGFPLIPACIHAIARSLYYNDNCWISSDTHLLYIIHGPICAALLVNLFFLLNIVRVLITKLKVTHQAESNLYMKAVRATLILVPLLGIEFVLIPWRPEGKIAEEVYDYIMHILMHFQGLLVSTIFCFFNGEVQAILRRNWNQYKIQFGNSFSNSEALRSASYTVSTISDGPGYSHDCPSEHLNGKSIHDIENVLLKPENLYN
T4 chain 2: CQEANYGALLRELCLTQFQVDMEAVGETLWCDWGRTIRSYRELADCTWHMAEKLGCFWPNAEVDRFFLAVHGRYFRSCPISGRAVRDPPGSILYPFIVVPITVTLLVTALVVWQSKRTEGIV

The target in assay [13] is T1, CLR-RAMP1 heterodimer with the L24A CLR …. Description: radioligand binding; competition: increasing unlabeled peptide against specific [125I-Tyr]CGRP(8–37) binding on crude membranes of transiently transfected HEK293T-RAMP1 cells, same buffer as the saturation binding; Ki from IC50 by the method of Cheng and Prusoff.
The target in assay [14] is T2, CLR-RAMP1 heterodimer with the …. The description is as above.
The target of assay [15] is T3, CLR-RAMP1 heterodimer with the L34A CLR …. Described as above.
The target in assay [16] is T4, CLR-RAMP1 heterodimer, wild type …. Described as above.

Entries after “also recorded” stand apart in the source; their conditions may differ. Bridge positions count the residues as written; N and C are the ends. Ends that are not written are not given here. Peptide text beside a SMILES is read from it. Some results are limits rather than exact numbers.

The Kd is the constant that tells how readily two partners part at equilibrium. What is called Ki is the equilibrium dissociation constant of an inhibitor or competing ligand from its target.

With `CC(C)C[C@H](NC(=O)CNC(=O)[C@H](C)NC(=O)[C@H](CC(C)C)NC(=O)[C@H](CCCNC(=N)N)NC(=O)[C@H](Cc1c[nH]cn1)NC(=O)[C@@H](NC(=O)[C@@H](NC(=O)[C@@H]1CSSC[C@H](NC(=O)[C@H](C)N)C(=O)N[C@@H](CC(=O)O)C(=O)N[C@@H]([C@@H](C)O)C(=O)N[C@@H](C)C(=O)N[C@@H]([C@@H](C)O)C(=O)N1)C(C)C)[C@@H](C)O)C(=O)N[C@@H](CC(C)C)C(=O)N[C@@H](CO)C(=O)N[C@@H](CCCNC(=N)N)C(=O)N[C@@H](CO)C(=O)O` [CGRP(1–19)] (H-ACDTATCVTHRLAGLLSRS-OH; disulfide 2-7 (inferred); N-terminus assumed), the “affinity for wild type CLR compared with CGRP” value in assay [1] is on record as “significant loss of CGRP(1–19) affinity”. Also, the “maximal cAMP response” value in assay [2] (CGRP(1–36) compared with CGRP, CGRP(1–19) compared with CGRP(1–36) and CGRP) is reported as “appreciably less”. In [2] (compared to CGRP), the “cAMP potency compared with CGRP, wild type” value is listed as “considerably less; also recorded: significantly less”. Also, in [3], the “affinity at leucine mutants compared with wild type” value is recorded as “analogous to values calculated for all leucine CLR mutations”. The “cAMP potency at leucine mutants compared with wild type” value in [4] (L24A, L34A, L24A,L34A vs wild type CLR) is given as “no different; also recorded: no significant potency differences”.

Consider CGRP(8–37), for which the “CGRP receptor affinity and activity” value in the assay on CGRP receptor (N-terminal truncated peptide) is listed as “effective CGRP receptor antagonist having a high affinity for the receptor but devoid of any biological activity in itself”. Besides, the “antagonism of cAMP response to CGRP(1–36)” value in [4] (1μM CGRP(8–37) preincubated 30 min before 10μM CGRP(1–36), wild type and leucine CLR mutants) was “abolished the activity of 10μM CGRP(1–36); also recorded: blocked to basal levels”.

As for [125I-Tyr]CGRP(8–37) (peptide), the Kd in assay [5] was found to be 9 nM; in assay [6], 9 nM; in [7], 9 nM; in assay [8] it was 0.9 nM.

As for “des-F37-CGRP: CGRP with deletion of the C-terminal phenylalanine at position 37 (ACDTATCVTHRLAGLLSRSGGVVKNNFVPTNVGSKA-NH2; disulfide 2-7 (inferred); ends not checked; UniProt P06881 83-119, looked up, variant F37*)”, the “affinity for native receptor compared with endogenous neuropeptide” value in the assay with CGRP receptor (not due to disruption of ligand structure) is recorded as “affinity loss”.

B1: CGRP(1–19) (peptide)
chain: ACDTATCVTHRLAGLLSRS
modifications: not checked
Turning to B1, the EC50 of cAMP generation in transiently transfected HEK293T-RAMP1 cells was found to be 2400 nM in assay [9], 1600 nM in [10], 2200 nM in assay [11] and 2100 nM in [12]. Moreover, the inhibition constant (Ki) in assay [13], in assay [14], in assay [15] and in [16] was above 10 µM each time.
